Laboratory results taken from PMC4468220, “Defective Proteasome Delivery of Polyubiquitinated Proteins by Ubiquilin-2 Proteins Containing ALS Mutations” (PLoS ONE, 2015).

How the values were obtained:
Assay in all cases: pull-down; 4 μg GST protein with 2 μg HIS-S5a in 800μL 2% Chaps buffer (20mM Tris pH 8.0, 150mM NaCl, 2mM MgCl2, 10% glycerol, 2.0% Chaps), glutathione agarose beads, 2 hrs at room temperature; washes with PBS, 2% Tween-20, 200 mM KCl; blot for S5a
Conditions in all cases: both partners purified
GST-ubiquilin-2 P506T = target: T1, GST-ubiquilin-2 P506T (human, UniProt Q9UHD9 1-624, P506T)
T1 construct: ubiquilin-2, human, full-length cDNA, 624 aa, ALS-linked mutation P506T; pGST/His T1 vector; also called P506T mutation; source: E. coli BL21(DE3), purified (glutathione-agarose); not shown: GST, N-terminal, kept

GST-ubiquilin-2 P509S = target: T2, GST-ubiquilin-2 P509S (human, UniProt Q9UHD9 1-624, P509S)
T2 construct: ubiquilin-2, human, full-length cDNA, 624 aa, ALS-linked mutation P509S; pGST/His T1 vector; also called P509S mutation; source: E. coli BL21(DE3), purified (glutathione-agarose); not shown: GST, N-terminal, kept

GST-ubiquilin-2 P525S = target: T3, GST-ubiquilin-2 P525S (human, UniProt Q9UHD9 1-624, P525S)
T3 construct: ubiquilin-2, human, full-length cDNA, 624 aa, ALS-linked mutation P525S; pGST/His T1 vector; also called P525S mutation; source: E. coli BL21(DE3), purified (glutathione-agarose); not shown: GST, N-terminal, kept

[1] = target: T4, GST-ubiquilin-2 wild type (human, UniProt Q9UHD9 1-624)
T4 construct: ubiquilin-2, human, full-length cDNA, 624 aa; cloned downstream of GST in the pGST/His T1 vector; also called GST-fusion protein encoding WT ubiquilin-2; source: E. coli BL21(DE3), purified (glutathione-agarose); not shown: GST, N-terminal, kept

GST-ubiquilin-2 P497H = target: T5, GST-ubiquilin-2 P497H (human, UniProt Q9UHD9 1-624, P497H)
T5 construct: ubiquilin-2, human, full-length cDNA, 624 aa, ALS-linked mutation P497H; pGST/His T1 vector; also called P497H mutation; source: E. coli BL21(DE3), purified (glutathione-agarose); not shown: GST, N-terminal, kept

GST-ubiquilin-2 P497S = target: T6, GST-ubiquilin-2 P497S (human, UniProt Q9UHD9 1-624, P497S)
T6 construct: ubiquilin-2, human, full-length cDNA, 624 aa, ALS-linked mutation P497S; pGST/His T1 vector; also called P497S mutation; source: E. coli BL21(DE3), purified (glutathione-agarose); not shown: GST, N-terminal, kept

Measured: binding result

T4 sequence (Q9UHD9 whole entry, the tested form may be a part): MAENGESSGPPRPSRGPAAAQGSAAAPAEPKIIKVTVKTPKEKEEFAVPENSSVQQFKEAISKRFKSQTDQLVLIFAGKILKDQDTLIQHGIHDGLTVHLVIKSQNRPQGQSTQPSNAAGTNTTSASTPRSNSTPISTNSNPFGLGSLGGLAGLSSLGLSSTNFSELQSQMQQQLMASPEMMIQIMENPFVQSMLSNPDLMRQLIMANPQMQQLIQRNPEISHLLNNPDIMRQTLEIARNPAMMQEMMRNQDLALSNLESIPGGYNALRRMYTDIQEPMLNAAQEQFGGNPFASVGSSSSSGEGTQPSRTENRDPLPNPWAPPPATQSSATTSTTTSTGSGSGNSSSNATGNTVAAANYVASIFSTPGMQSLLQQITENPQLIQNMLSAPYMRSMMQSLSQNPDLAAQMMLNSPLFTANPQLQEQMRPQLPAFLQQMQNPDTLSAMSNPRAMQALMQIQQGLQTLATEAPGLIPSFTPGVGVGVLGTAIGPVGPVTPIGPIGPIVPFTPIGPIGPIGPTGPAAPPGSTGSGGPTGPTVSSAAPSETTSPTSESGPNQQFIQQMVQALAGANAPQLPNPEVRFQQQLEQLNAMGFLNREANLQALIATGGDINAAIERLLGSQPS
T1 sequence (Q9UHD9 whole entry P506T): as the sequence (Q9UHD9 whole entry, the tested form may be a part) above, with P506T counted along it
T6 sequence (Q9UHD9 whole entry P497S): as the sequence (Q9UHD9 whole entry, the tested form may be a part) above, with P497S counted along it
T3 sequence (Q9UHD9 whole entry P525S): as the sequence (Q9UHD9 whole entry, the tested form may be a part) above, with P525S counted along it
T2 sequence (Q9UHD9 whole entry P509S): as the sequence (Q9UHD9 whole entry, the tested form may be a part) above, with P509S counted along it
T5 sequence (Q9UHD9 whole entry P497H): as the sequence (Q9UHD9 whole entry, the tested form may be a part) above, with P497H counted along it

B1: HIS-tagged human S5a protein (natural protein, UniProt P55036 1-377, looked up)
chain: MVLESTMVCVDNSEYMRNGDFLPTRLQAQQDAVNIVCHSKTRSNPENNVGLITLANDCEVLTTLTPDTGRILSKLHTVQPKGKITFCTGIRVAHLALKHRQGKNHKMRIIAFVGSPVEDNEKDLVKLAKRLKKEKVNVDIINFGEEEVNTEKLTAFVNTLNGKDGTGSHLVTVPPGPSLADALISSPILAGEGGAMLGLGASDFEFGVDPSADPELALALRVSMEEQRQRQEEEARRAAAASAAEAGIATTGTEDSDDALLKMTISQQEFGRTGLPDLSSMTEEEQIAYAMQMSLQGAEFGQAESADIDASSAMDTSEPAKEEDDYDVMQDPEFLQSVLENLPGVDPNNEAIRNAMGSLASQATKDGKKDKKEEDKK
notes: S5a subunit of the 19S cap of the proteasome, human, entire open reading frame (377 aa); cloned in pET-21a; also called His-S5a; HIS-S5a; source: E. coli BL21(DE3), purified (Ni-NTA agarose)
binds: all assays above
